From US20240165282A1, “CONFORMATIONAL CONSTRAINED SOMATOSTATIN RECEPTOR 3 PEPTIDE LIGANDS AND THEIR CONJUGATES AND USES THEREOF” (STARGET PHARMA LTD., priority 2021, published 2024)
*1 amine or outer side, *2 acyl side, *3 side chain or, on linkers, in order; H or OH if unused. Bridges are numbered along the chain shown (N, C = ends). Where no end group is shown, it is not given here. [ ]: non-standard residue; d: D form. The star is where a group is joined. DOTA = O=C(O)CN1CCN(CC(=O)O)CCN(CC(=O)*)CCN(CC(=O)O)CC1; N(2-mercaptoethyl)Gly = O=C(CN(CCS[*:3])[*:1])[*:2]; NTEG = not defined here; Aoc = NCCCCCCCC(=O)O; GABA = NCCCC(=O)O

Tests used:
Assay in all cases: 125I-Tyr11-SRIF-14 displacement
[1] = target: human cloned somatostatin receptor 3 (human) (UniProt P32745)
[2] = target: human cloned somatostatin receptor 1 (human) (UniProt P30872)
[3] = target: human cloned somatostatin receptor 2 (human) (UniProt P30874)
[4] = target: human cloned somatostatin receptor 4 (human) (UniProt P31391)
[5] = target: human cloned somatostatin receptor 5 (human) (UniProt P35346)
human cloned somatostatin receptor 5 (human), sequence (P35346 whole entry): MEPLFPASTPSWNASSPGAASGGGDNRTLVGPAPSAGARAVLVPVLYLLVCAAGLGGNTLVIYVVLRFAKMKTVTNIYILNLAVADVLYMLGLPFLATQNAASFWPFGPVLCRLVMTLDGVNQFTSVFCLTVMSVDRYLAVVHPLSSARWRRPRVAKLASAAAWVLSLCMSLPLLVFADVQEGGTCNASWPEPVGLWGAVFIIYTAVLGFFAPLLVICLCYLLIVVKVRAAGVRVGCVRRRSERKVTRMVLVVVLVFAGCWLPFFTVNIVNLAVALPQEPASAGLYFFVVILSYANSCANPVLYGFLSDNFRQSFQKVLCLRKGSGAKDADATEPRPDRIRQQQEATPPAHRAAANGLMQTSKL

human cloned somatostatin receptor 2 (human), sequence (P30874 whole entry): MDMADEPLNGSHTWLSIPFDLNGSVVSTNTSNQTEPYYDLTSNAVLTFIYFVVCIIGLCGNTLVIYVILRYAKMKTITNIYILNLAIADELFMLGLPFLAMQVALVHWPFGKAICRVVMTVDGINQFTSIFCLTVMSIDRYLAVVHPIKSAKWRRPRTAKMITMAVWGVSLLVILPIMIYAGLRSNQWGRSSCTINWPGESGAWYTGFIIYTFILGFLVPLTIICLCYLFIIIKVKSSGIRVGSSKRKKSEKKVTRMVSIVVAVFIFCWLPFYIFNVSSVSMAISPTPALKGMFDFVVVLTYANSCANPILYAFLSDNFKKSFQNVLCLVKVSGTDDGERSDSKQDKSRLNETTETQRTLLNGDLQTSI
human cloned somatostatin receptor 3 (human), sequence (P32745 whole entry): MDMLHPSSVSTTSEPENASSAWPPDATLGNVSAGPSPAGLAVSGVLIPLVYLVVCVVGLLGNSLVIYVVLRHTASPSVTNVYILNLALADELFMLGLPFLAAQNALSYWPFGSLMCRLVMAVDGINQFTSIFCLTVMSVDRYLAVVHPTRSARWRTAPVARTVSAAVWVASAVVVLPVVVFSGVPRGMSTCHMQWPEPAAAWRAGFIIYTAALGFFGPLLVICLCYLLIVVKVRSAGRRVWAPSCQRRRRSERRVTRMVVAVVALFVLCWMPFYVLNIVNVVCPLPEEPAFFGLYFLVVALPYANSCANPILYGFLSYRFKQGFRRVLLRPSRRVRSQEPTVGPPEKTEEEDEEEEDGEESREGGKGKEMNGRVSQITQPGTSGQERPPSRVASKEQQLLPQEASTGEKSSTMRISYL
human cloned somatostatin receptor 1 (human), sequence (P30872 whole entry): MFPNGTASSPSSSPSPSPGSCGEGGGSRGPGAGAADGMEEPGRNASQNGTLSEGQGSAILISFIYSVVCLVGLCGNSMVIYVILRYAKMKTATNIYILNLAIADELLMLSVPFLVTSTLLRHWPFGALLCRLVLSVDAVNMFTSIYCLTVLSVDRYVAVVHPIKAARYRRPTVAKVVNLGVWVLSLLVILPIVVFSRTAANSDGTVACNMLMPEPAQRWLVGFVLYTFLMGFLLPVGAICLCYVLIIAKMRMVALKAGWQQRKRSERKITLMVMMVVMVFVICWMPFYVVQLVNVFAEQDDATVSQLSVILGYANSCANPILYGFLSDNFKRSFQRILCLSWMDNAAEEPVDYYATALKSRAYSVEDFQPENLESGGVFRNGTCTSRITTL
human cloned somatostatin receptor 4 (human), sequence (P31391 whole entry): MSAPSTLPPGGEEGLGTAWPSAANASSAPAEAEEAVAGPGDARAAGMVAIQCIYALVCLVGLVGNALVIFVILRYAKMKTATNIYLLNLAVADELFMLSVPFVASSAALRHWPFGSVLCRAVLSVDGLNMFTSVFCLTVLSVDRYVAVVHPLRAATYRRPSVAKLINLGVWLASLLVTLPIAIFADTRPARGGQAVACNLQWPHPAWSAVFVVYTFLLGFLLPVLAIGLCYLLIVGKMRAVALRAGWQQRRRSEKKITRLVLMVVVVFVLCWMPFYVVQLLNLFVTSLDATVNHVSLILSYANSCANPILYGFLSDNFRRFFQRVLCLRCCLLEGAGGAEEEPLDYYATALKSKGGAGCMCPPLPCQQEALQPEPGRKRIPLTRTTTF

Row | Binder | % displacement at 1 nM [1] | % displacement at 10 nM [1] | % displacement at 1 nM [2] | % displacement at 10 nM [2] | % displacement at 1 nM [3] | % displacement at 10 nM [3] | % displacement at 1 nM [4] | % displacement at 10 nM [4] | % displacement at 1 nM [5] | % displacement at 10 nM [5] | IC50 [2] | Ki [2] | IC50 [3] | Ki [3] | IC50 [1] | IC50 [5] | Ki [5] | Ki [1]
1 | {DOTA}-[dF]RCF[dW]KTF[N(2-mercaptoethyl)Gly]-NH2 (disulfide 3-9; also: Lu complex of DOTA) [SEQ ID NO: 6] | – | – | – | – | – | – | – | – | – | – | 310 nM | 260 nM | 210 nM | 110 nM | 0.9 nM | 86 nM | 48 nM | –
2 | {DOTA}-[dF]RCF[dW]KTF[N(2-mercaptoethyl)Gly]-NH2 (disulfide 3-9; also: Cu complex of DOTA) [SEQ ID NO: 5] | – | – | – | – | – | – | – | – | – | – | 780 nM | 640 nM | 420 nM | 220 nM | 0.9 nM | 150 nM | 82 nM | –
3 | H-[dF]KCF[dW]KTF[N(2-mercaptoethyl)Gly]-NH2 (disulfide 3-9; SMILES C[C@@H](O)[C@@H]1NC(=O)[C@H](CCCCN)NC(=O)[C@@H](Cc2c[nH]c3ccccc23)NC(=O)[C@H](Cc2ccccc2)NC(=O)[C@@H](NC(=O)[C@H](CCCCN)NC(=O)[C@H](N)Cc2ccccc2)CSSCCN(CC(N)=O)C(=O)[C@H](Cc2ccccc2)NC1=O) [SEQ ID NO: 2] | – | – | – | – | – | – | – | – | – | – | – | – | – | – | 0.73 nM | – | – | 0.25 nM
4 | {DOTA}-[dF]KCF[dW]KTF[N(2-mercaptoethyl)Gly]-NH2 (disulfide 3-9; SMILES C[C@@H](O)[C@@H]1NC(=O)[C@H](CCCCN)NC(=O)[C@@H](Cc2c[nH]c3ccccc23)NC(=O)[C@H](Cc2ccccc2)NC(=O)[C@@H](NC(=O)[C@H](CCCCN)NC(=O)[C@@H](Cc2ccccc2)NC(=O)CN2CCN(CC(=O)O)CCN(CC(=O)O)CCN(CC(=O)O)CC2)CSSCCN(CC(N)=O)C(=O)[C@H](Cc2ccccc2)NC1=O) [SEQ ID NO: 9] | 59% | 91% | 4% | 10% | 0% | 0% | 0% | 0% | 0% | 12% | – | – | – | – | 1 nM | – | – | –
5 | H-[dF]RCF[dW]KTF[N(2-mercaptoethyl)Gly]-NH2 (disulfide 3-9; SMILES C[C@@H](O)[C@@H]1NC(=O)[C@H](CCCCN)NC(=O)[C@@H](Cc2c[nH]c3ccccc23)NC(=O)[C@H](Cc2ccccc2)NC(=O)[C@@H](NC(=O)[C@H](CCCNC(=N)N)NC(=O)[C@H](N)Cc2ccccc2)CSSCCN(CC(N)=O)C(=O)[C@H](Cc2ccccc2)NC1=O) [SEQ ID NO: 1] | – | – | – | – | – | – | – | – | – | – | 180 nM | 150 nM | 390 nM | 320 nM | 0.43 nM | 310 nM | 170 nM | 0.15 nM
6 | {DOTA}-[dF]KCF[dW]KTF[NTEG]-NH2 (disulfide 3-9; reading uncertain; also: Ga chelated by DOTA) [SEQ ID NO: 10] | 27% | 75% | – | – | – | – | – | – | – | – | – | – | – | – | 2.4 nM | – | – | –
7 | {DOTA}-G[dF]RCF[dW]KTF[N(2-mercaptoethyl)Gly]-NH2 (disulfide 4-10; SMILES C[C@@H](O)[C@@H]1NC(=O)[C@H](CCCCN)NC(=O)[C@@H](Cc2c[nH]c3ccccc23)NC(=O)[C@H](Cc2ccccc2)NC(=O)[C@@H](NC(=O)[C@H](CCCNC(=N)N)NC(=O)[C@@H](Cc2ccccc2)NC(=O)CNC(=O)CN2CCN(CC(=O)O)CCN(CC(=O)O)CCN(CC(=O)O)CC2)CSSCCN(CC(N)=O)C(=O)[C@H](Cc2ccccc2)NC1=O) [SEQ ID NO: 11] | 47% | 88% | 2% | 19% | 0% | 0% | 0% | 0% | 0% | 0% | – | – | – | – | – | – | – | –
8 | {DOTA-GABA}-[dF]RCF[dW]KTF[N(2-mercaptoethyl)Gly]-NH2 (disulfide 3-9; also: Ga complex of DOTA) [SEQ ID NO: 8] | 61% | 88% | 0% | 10% | 0% | 10% | 5% | 4% | 0% | 15% | – | – | – | – | – | – | – | –

The next lines start with the values.

Row | % displacement at 1 nM [1] | % displacement at 10 nM [1] | % displacement at 1 nM [2] | % displacement at 10 nM [2] | % displacement at 1 nM [3] | % displacement at 10 nM [3] | % displacement at 1 nM [4] | % displacement at 10 nM [4] | % displacement at 1 nM [5] | % displacement at 10 nM [5] | IC50 [2] | Ki [2] | IC50 [3] | Ki [3] | IC50 [1] | IC50 [5] | Ki [5] | Ki [1] | Binder
9 | 66% | 88% | – | – | – | – | – | – | – | – | – | – | – | – | – | – | – | – | {DOTA}-[dF]KCY[dW]KTF[N(2-mercaptoethyl)Gly]-NH2 (disulfide 3-9; SMILES C[C@@H](O)[C@@H]1NC(=O)[C@H](CCCCN)NC(=O)[C@@H](Cc2c[nH]c3ccccc23)NC(=O)[C@H](Cc2ccc(O)cc2)NC(=O)[C@@H](NC(=O)[C@H](CCCCN)NC(=O)[C@@H](Cc2ccccc2)NC(=O)CN2CCN(CC(=O)O)CCN(CC(=O)O)CCN(CC(=O)O)CC2)CSSCCN(CC(N)=O)C(=O)[C@H](Cc2ccccc2)NC1=O) [SEQ ID NO: 24]
10 | 64% | 93% | 0% | 10% | 0% | 0% | 0% | 0% | 0% | 13% | – | – | – | – | – | – | – | – | {DOTA}-A[dF]RCF[dW]KTF[N(2-mercaptoethyl)Gly]-NH2 (disulfide 4-10; SMILES C[C@H](NC(=O)CN1CCN(CC(=O)O)CCN(CC(=O)O)CCN(CC(=O)O)CC1)C(=O)N[C@H](Cc1ccccc1)C(=O)N[C@@H](CCCNC(=N)N)C(=O)N[C@H]1CSSCCN(CC(N)=O)C(=O)[C@H](Cc2ccccc2)NC(=O)[C@H]([C@@H](C)O)NC(=O)[C@H](CCCCN)NC(=O)[C@@H](Cc2c[nH]c3ccccc23)NC(=O)[C@H](Cc2ccccc2)NC1=O) [SEQ ID NO: 12]
11 | 47% | 88% | 0% | 5% | 6% | 2% | 0% | 0% | 0% | 3% | – | – | – | – | – | – | – | – | K[dF]RCF[dW]KTF[N(2-mercaptoethyl)Gly]-NH2 (disulfide 4-10; not fully specified (residue 1, N-terminus); printed as (DOTA)2-Lys1-D-Phe2-Arg3-Cys4-Phe5-D-Trp6-Lys7-Thr8-Phe9-NTEG10-NH2 (cyclo 3-9); also: (DOTA)2 on Lys1, sites not given here) [SEQ ID NO: 16]
12 | 49% | 87% | 6% | 18% | 1% | 0% | 0% | 0% | 0% | 0% | – | – | – | – | – | – | – | – | {DOTA-Aoc}-[dF]RCF[dW]KTF[N(2-mercaptoethyl)Gly]-NH2 (disulfide 3-9) [SEQ ID NO: 15]
